Laboratory results as given in the DeepSol protein solubility set.

Assay: soluble on expression in E. coli; label from the status in PepcDB or PDB records

| Sequence | soluble on expression in E. coli |
| --- | --- |
| MKTNSEELTVFVQVVESGSFSRAAEQLAMANSAVSRIVKRLEEKLGVNLLNRTTRQLSLTEEGAQYFRRAQRILQEMAAAETEMLAVHEIPQGVLSVDSAMPMVLHLLAPLAAKFNERYPHIRLSLVSSEGYINLIERKVDIALRAGELDDSGLRARHLFDSRFRVIASPEYLAKHGTPQSTEELAGHQCLGFTEPGSLNTWAVLDAQGNPYKISPHFTASSGEILRSLCLSGCGIVCLSDFLVDNDIAEGKLIPLLAEQTSDKTHPFNAVYYSDKAVNLRLRVFLDFLVEELGNNLCGKHHHHHH | soluble |
| MWHGMGDCCCNPLSMGSVKKLFEEQIPGVYVHSLQLGSSITKDIEHGFYANTNELVYMACIKIKNDPELKNGYNAIGFSQGAQFLRAVAQRCPNPPMKNLVSVGGQHQGVFGAPYCIGDNIMCNGVRRLIDLGAYLPFVQKRVVQAQYWHDPNQVEEYKKRSIFLADINNENNNNPTYKRNLLSLKNLVLVKFNQDHMVVPKDSSWFGFYKDGDIDTILPMNETDLYKEDRIGLKKLHESGRIHFMDVDGDHLQIPRSVLVNDIIKKYFM | not soluble |
| MSFSDHFSAVAASYAKARPRYPQRWFRYLARIVPDRQRVWDCATGNGQAAIALAEYFSEVIGSDASAAQVRQARSHPRVQYLVFPAEATPLAPASLDLITVAQAAHWFDLPQFYIEAQRLLRPGGVIALWGYGLGSLNPAIDHVFNHFYRDWLDPYWPPERQWVEQAYEGLSFPFEPLPTPTFSMQCDWTLFDLLAYLRTWSGVQQFQRQRGFDPVWAIAPELQRVWGDPQRYRRITWPLFAKVGRWQPDRVRLEHHHHHH | not soluble |
| MMDPISIINKYYTEGTNQYHILVEHSRDVAALALRIVEIHPELQADRLFVEEAAMLHDIGIFLTDAESIACFGKEPYILHGYMGANILRKEGYPRHALVCERHTGSGLTSEDIAARQIALPPGIYTPQSIEEKIVCYADKFFSKTKLHRQKKLEDVRRSMLSYGADSLRRFDEMHALFKIPLG | soluble |
| MGGWIRNIGRYLSYLVDDTFEEYAYDVVDGIAKARTQEELLEGVYKALRLAPKLKKKAESKGCPPPRIPSPEDIEALEEKVEQLSNPKDLRKLAVSLALWAFASWNNCPKKGKGTEGGVELEHHHHHH | soluble |
| MKLELSYSDHLQLSESLNELGQTTRITQLEPGEGKYTMSFKQSTGIALAEIQSTQPLLYEGWGTTWSVDFNWITPTCHLNDPFGYCEGYEMKETSLGGFNTLNTSPGNSWGKYSNNCSSTACMLDKNILMKMLKECNAAQAIDNLSKARGLDVSSESLYQLKKLTRKDLVRGIMNPTKYYDLIVACLEGGDKRGYRKGLTKNYRLLGEIVQLSHDSRRMSSPMTLSDVCQYLDTGQASLYRVCQDYFGMGIIEMMTQIRLEEARRALLMFKQNEKNHALTVRDVALGYGFKHQGRFSRRYFTSFGELPSQTLDRSQEL | not soluble |
| MSLEDHAEELASDLGVDKEEVTRDLENLVNYSVPMDEAKQSLRRKYGDGSSGGDSTPSSKAINEVSTEDSNVTVTAVVLTSGRRSIQYNGEQHVIREGELADETGKISYTAWDGFSGDLQPGQTVQLGNAGVREWDGQPELNLGDSTDPEVVDETLDIDYDVGGRAALQDLAPGDRGITVEVQVLECEQKVIDGRDGETTILSGVLGDESGRLPFTDWDPHDEIEEGASVRLDETFVREFRGAPSVNVSEFSAVTALDRTVGVTEDAPRLSVREAVESGGLFDVELAGNVIEVRDGSGLIERCPECGRVIQNGQCRSHGAVEGEDDLRTKAILDDGTDTVTAVLDDELTARVYGGDLDDAREHARDAMDKEVVAERISDRIVGREYVVRGSLSVDEYGANLTASTFAEADDDPATRAQALLQEADTLEHHHHHH | soluble |
| MMQRRAVFGLFLLPLARGQGTCAPTPALTQGPYYLRDVPQREDLREGLPGVPLRLLLRVRDRACRPLQGARVDLWHTDALGRYSGVNAPGTFCRGWQATDERGEVAFLTLFPGWYPSRTPHLHLRVEAGGRVFATQLFFPEEVQRQVYALPPYRERGMPRVNNRQDGLFRADLLLRLEREGEAYRGAFVLTLPG | soluble |
| MLKIGIVGCGAIGNFITKKVLDGTIKNAKISAVYDRNFDKAKTLSERTGAKICSSIDDLVKEDLDLVVEAASIKAVEEIAEKSLINNKDVLIMSVGALADKKLFLKLRDLAKTVGRKIYLPSGAIGGLDAIKALRLGEIEEVVLKTTKPVAALEDALKNLGYKPEDIKNPVIVFEGDVFKAIKEFPANINVSVTLSIAAEFPAKVVIVADPNAKLNKHELFVKSSIGTLRVCIENVPFEENPRTSALAAYSAVRLIRDLAEPVKVGT | soluble |
| MTLSFDDAAATVKTLKTSPSNDELLKLYALFKQGTVGDNTTDKPGMFDLKGKAKWSAWDEKKGLAKDDAQKAYVALVEELIAKYGA | soluble |
| MELKSTRHTKYLCNYHFVWIPKHRRNTLVNEIAEYTKEVLKSIAEELGCEIIALEVMPDHIHLFVNCPPRYAPSYLANYFKGKSARLILKKFPQLNKGKLWTRSYFVATAGNVSSEVIKKYIEEQWRKEGEEE | soluble |
| SKLPKGTRSSVYFAQHPEKEPLPSRQEVKQTPVIMAKIKGPGPAKYLRPSCTGYIDHDISMFKAPAYTLHSRHSEKRMVCHSSPGPCYLLDPKITRFGMSSCPQVPMEERISNLRLNPTLASCQYYFEKIHPPGERRAPQYTFGYRRPYRVMDLNPAPNQYQMPLLLGPNTPVSRAAPCYSLASRDKNWFYKEDVAGGPGPTTYARPEPSIYQNRSPTYSMAKRFAYPLDLTPRPGPGSHEVQQVTVHKPHIPAFTMGIKHSLHLCPLVIDIRD | not soluble |
| METQEKKFVPASKQIPTVNSGWLDRELGEAMSEAVRACLAHGKQSEITVKLKIQPQNIQSGTVKISHDVATKLPKEKREGGIVFATPDGNIQADDPAQGKLKLKQVSNTSSTLKMVRSN | not soluble |
| MGSDKIHHHHHHMFQDKYVFAQLASFLNRSKFNRIVTKYDGDKYVKHFTCWNQLLALMFGQLSNRESLRDLIVALEAHHSKCYHLGMGKNVSKSSLARANQDRDYHIFEEYAYYLVSEARQKCANHIFKLGGNVYAFDSTTIDLCLSVFWWAKFRKKKGGIKVHTLYDVETQIPAFFHITEASVHDSKVMIEIPYEPSSYYIFDRGYNNFKMLYKIHQIEAYFVVRAKKNLQYKSIQWKRRLPKNVLSDASVLLTGFYPKQYYPKPLRLVKYWDEEQEREFTFITNAMHISALQVAELYKNRWQVELFFKWLKQHLKIKRFWGTTENAVRIQIYAAICAYCLVAIIQHDMQLDRSTYEVLQILSISLTDKTHLRDLFDKTKFQNDKERFGPNGPSLFNF | not soluble |
| GMNIEKTRFCINRKIAPGLSIEAFFRLVKRLEFNKVELRNDMPSGSVTDDLNYNQVRNLAEKYGLEIVTINAVYPFNQLTEEVVKKTEGLLRDAQGVGARALVLCPLNDGTIVPPEVTVEAIKRLSDLFARYDIQGLVEPLGFRVSSLRSAVWAQQLIREAGSPFKVLLDTFHHHLYEEAEKEFASRIDISAIGLVHLSGVEDTRPTEALADEQRIMLSEKDVMQNYQQVQRLENMGYRGIYAFEPFSSQLASWSEAEIEEQINRSVSLLLQ | soluble |
| MKMIQFWFDFASTYSYPAAMQIRQLKDEYRFSLHPFLLGGIFQKQGLNDSPFNAYPVKGQYMWRDLERICQKLDLKFHRPVLFPQNGLLAARIACQYASAPWIFDFICSVYQANFVQNLDIGQPETISQILQNMQLDCNDIIMTSTTDTAKQTLKQNGMIAESLHIFGAPSFVVENELFWGQDRLQDAIDWSQR | not soluble |
| MAQTLAQTKQISQSHTFDVSQSHHKTPDDTNSHSVIYSTQNLDLWYGENHALQNINLDIYENQITAIIGPSGCGKSTYIKTLNRMVELVPSVKTAGKILYRDQDIFDQKYSKEQLRTNVGMVFQQPNPFPKSIYDNITYGPKIHGIKNKKVLDEIVEKSLRGAAIWDELKDRLHTNAYSLSGGQQQRVCIARCLAIEPEVILMDEPTSALDPISTLRVEELVQELKEKYTIIMVTHNMQQAARVSDKTAFFLNGYVNEYDDTDKIFSNPSNKKTEDYISGRFG | not soluble |
| MKKDITLFTSARPELKFFRLSECKEHLDTAAMWAKNAWGYMHLDDEQFHYKQLQELCEHVYIAMYDGLPVGMLAVIEKTLSLEENREESSEKIVEEPSTPEITEMKNAYLDYVYIDERARSIGLAGIIIEKAKNLAREMNAEVMSLETLNSTLNGFYKRKGGRVICEGRYNDSYPTEVMRLRF | not soluble |
| MSLFVEALKRQNPALISAALSLWQQGKIAPDSWVIDVDQILENGKRLIETARLYGIELYLMTKQFGRNPWLAEKLLALGYSGIVAVDYKEARVMRRAGLPVAHQGHLVQIPCHQVADAVEQGTDVITVFTLDKAREVSAAAVKAGRIQSVLLKVYSDDDFLYPGQESGFALKVLPEIVAEIQNLPGLHLAGLTHFPCLLWDEAVGKVLPTPNLHTLIQARDQLAKSGIALEQLNAPSATSCTSLPLLAQYGVTHAEPGHALTGTIPANQQGDQPERIAMLWLSEISHHFRGDSYCYGGGYYRRGHAQHALVFTPENQKITETNLKTVDDSSIDYTLPLAGEFPVSSAVVLCFRTQIFVTRSDVVLVSGIHRGEPEIVGRYDSLGNSLGAEGHHHHHH | soluble |
| MTDTHAHLDFLEPEELAEAAAHLPKLRAVLTLGVDPGRWEKTLSLAQGNVYAAVGLHPTSAHLLSPRWRRPFRHYARSERVRAIGETGLDYYWTPETRAVQLKALDFQAALAEALGLPLVLHVRSKDGKAEEDLAAWLLLHRPKRAVLHAFSGHPALEAAGLEVGAYFSFAGPLTYRKNAALREAAARLPEDRLLVETDTPFLPPEPFRGKRNRPHYVRFTLEKLAEARGLPFAEAEALTDRNARVCFGWP | soluble |
| MKGMRGPGESRDTAMAVEQDIFDAVVMADERFHGEGYQEGYEEGSSLGIVEGKRYGMVHGAKIGSEIGCYRGFALAWKCLLHSGAGEKDSRKMKVVEALIALLQDFPYDDPTYEKLHEDLDRIRGKFRQLCSLLNVQPDFKVTPGGSGLAF | soluble |
| MGHHHHHHSHMNDSDSTPPKKKMRKTENGMYACDLCDKIFQKSSSLLRHKYEHTGKRPHECGICKKAFKHKHHLIEHMRLHSGEKPYQCDKCGKRFSHSGSYSQHMNHRYSYCKREAEERDSTEQEEAGPEILSNEHVGARASP | soluble |
| MRIPRIYHPEPLTSHSHIALCEDAANHIGRVLRMGPGQALQLFDGSNQVFDAEITSASKKSVEVKVLEGQIDDRESPLHIHLGQVMSRGEKMEFTIQKSIELGVSLITPLFSERCGVKLDSERLNKKLQQWQKIAIAACEQCGRNRVPEIRPAMDLEAWCAEQDEGLKLNLHPRASNSINTLPLPVERVRLLIGPEGGLSADEIAMTARYQFTDILLGPRVLRTETTALTAITALQVRFGDLG | soluble |
